These results are taken from article PMC9504884, “Functional Interactions of Kluyveromyces lactis Telomerase Reverse Transcriptase with the Three-Way Junction and the Template Domains of Telomerase RNA”.

Common to all, as to assay: EMSA; 1 nM RNA, tRNA competitor; 25 mM Tris-HCl pH 7.5, 50 mM KCl, 1 mM MgCl2, 1 mM DTT, 10% glycerol, 0.1% Triton, 0.5 mg/mL BSA, 1.7 ng/uL yeast tRNA, 1 nM RNA probe; 15 min on ice then 10 min room temperature; gel at 6 C
One series has as its target T1, klTRBD klEst2 171-404 (Kluyveromyces lactis, UniProt Q6CSS0 171-404).
T1 sequence: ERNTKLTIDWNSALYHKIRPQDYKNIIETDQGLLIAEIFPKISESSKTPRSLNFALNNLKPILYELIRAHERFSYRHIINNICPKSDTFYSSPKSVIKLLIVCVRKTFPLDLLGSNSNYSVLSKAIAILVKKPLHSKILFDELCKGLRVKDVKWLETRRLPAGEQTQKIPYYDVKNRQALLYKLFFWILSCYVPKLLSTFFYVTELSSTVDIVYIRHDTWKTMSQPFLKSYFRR
Conditions: protein: recombinant; tags: N-terminal His-SUMO, TEV-cleaved; label: 5'-32P when probe; hairpin (TBE) with template.

Series [1] has as its target T2, klEst2 full-length (TERT) (Kluyveromyces lactis, UniProt Q6CSS0 1-861).
T2 sequence: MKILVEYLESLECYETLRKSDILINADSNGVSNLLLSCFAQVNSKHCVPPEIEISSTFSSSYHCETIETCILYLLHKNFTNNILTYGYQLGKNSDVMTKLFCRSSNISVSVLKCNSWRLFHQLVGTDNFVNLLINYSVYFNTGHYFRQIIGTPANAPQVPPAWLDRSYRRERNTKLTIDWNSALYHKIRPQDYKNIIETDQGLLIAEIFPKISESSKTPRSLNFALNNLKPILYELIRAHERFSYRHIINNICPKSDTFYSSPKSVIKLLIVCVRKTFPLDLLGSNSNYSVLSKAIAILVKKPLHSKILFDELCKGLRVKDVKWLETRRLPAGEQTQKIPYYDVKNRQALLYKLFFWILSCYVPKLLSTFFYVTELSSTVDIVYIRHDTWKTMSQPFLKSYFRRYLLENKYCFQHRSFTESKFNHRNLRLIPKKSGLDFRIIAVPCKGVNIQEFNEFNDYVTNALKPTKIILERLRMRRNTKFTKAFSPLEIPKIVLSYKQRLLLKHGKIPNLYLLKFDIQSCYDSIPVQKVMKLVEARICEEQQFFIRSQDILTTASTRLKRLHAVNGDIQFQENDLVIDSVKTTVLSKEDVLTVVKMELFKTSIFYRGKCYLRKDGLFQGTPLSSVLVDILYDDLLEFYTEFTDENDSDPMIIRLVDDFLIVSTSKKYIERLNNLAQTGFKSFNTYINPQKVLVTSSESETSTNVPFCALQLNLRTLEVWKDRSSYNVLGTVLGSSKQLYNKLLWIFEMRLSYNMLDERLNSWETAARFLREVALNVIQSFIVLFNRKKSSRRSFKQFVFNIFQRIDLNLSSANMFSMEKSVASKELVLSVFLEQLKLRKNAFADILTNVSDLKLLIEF
Conditions: protein: recombinant; tags: expressed in E. coli; His-SUMO tag described for the TRBD constructs, tag of full-length not clearly stated; label: 5'-32P when probe; hairpin (TBE) with template.

The next series addresses T3, klTRBD klEst2 171-422 (Kluyveromyces lactis, UniProt Q6CSS0 171-422).
T3 sequence: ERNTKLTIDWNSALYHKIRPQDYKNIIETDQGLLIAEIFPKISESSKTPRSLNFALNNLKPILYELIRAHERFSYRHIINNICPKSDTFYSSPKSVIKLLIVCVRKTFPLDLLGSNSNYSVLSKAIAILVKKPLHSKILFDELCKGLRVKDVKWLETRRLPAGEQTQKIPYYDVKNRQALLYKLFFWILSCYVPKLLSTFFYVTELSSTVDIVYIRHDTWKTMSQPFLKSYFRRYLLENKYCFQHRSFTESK
Conditions: protein: recombinant; tags: N-terminal His-SUMO, TEV-cleaved; label: 5'-32P when probe; hairpin (TBE) with template.

B1: T + TBE (structured_RNA)
RNA: GGUAAGGACCAGUGCCACGAAAGUGGUACUUCAAAUCCGUACACCACAUACCUAAUCAAAACCG
As to B1, the binding result with klTRBD klEst2 171-404 is “no binding”; in series [1], “binds”; with klTRBD klEst2 171-422, “no binding”.
